Reference: paper PMC6925320

Target: lipolysis-stimulated lipoprotein receptor (LSR) on Caco-2 cells (human (endogenous in Caco-2)) (UniProt Q86X29)
Assay: flow cytometry on cells

Chain of UniProt Q86X29 (Q86X29 whole entry): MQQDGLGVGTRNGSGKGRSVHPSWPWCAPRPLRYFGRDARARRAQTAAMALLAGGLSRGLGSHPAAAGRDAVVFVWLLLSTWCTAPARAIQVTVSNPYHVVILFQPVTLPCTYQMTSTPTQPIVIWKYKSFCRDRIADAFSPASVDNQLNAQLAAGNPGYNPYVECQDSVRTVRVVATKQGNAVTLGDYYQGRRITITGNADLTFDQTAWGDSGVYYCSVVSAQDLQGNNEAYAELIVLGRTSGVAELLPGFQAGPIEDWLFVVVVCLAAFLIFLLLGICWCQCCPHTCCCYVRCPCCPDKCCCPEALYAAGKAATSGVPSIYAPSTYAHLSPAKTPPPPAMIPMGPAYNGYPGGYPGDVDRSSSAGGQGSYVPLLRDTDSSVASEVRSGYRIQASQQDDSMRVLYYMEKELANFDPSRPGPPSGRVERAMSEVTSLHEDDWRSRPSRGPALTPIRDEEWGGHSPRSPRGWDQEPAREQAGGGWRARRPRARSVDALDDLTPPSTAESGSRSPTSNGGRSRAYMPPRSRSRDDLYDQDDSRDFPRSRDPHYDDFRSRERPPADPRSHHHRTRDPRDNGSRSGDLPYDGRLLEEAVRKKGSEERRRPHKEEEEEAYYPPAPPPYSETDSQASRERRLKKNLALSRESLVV

“Alexa-647-labeled CDTb F774D (from UniProt Q9KH41 43-876) (natural protein)” and “Alexa-647-labeled CDTb I852E (from UniProt Q9KH41 43-876) (natural protein)” cannot be ordered by Kd: > 50 nM for the first, 75 nM for the second.

First: Alexa-647-labeled CDTb T854E (from UniProt Q9KH41 43-876) (natural protein)
Second: Alexa-647-labeled CDTb Y812D (from UniProt Q9KH41 43-876) (natural protein)
The Kd of the first is 9.7-fold higher: 38 nM for the first, 3.9 nM for the second.

For “Alexa-647-labeled CDTb, wild type (from UniProt Q9KH41 43-876) (natural protein)”, the Kd was 4.5 nM.

Target: trypsin-activated CDTb (cell-binding component of the C. difficile transferase toxin), oligomer (Clostridioides difficile strain R20291) (UniProt Q9KH41)
Assay: cryo-EM structure

For “trypsin-activated CDTb (cell-binding component of the C. difficile transferase toxin), oligomer (from UniProt Q9KH41 43-876) (natural protein)”, the stoichiometry N was 7.
